How the values were obtained:
[1] = Saccharification of lignocellulose 1 with Trichoderma reesei culture solution and endoglucanase; format: biochemical, Rice straw; details: Lignocellulose 1, 24 hours; cellulase 1.0 mg/mL + endoglucanase 0.1 mg/mL + β-glucosidase (Novozyme 188) 0.01 mg/mL
How it was run: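 Substrate was liquid-ammonia-treated rice straw (1 h, 150 °C), suspended at 5 wt % in 50 mM acetate buffer pH 5.2 and hydrolysed for 24 h at 50 °C. Enzymes: T. reesei culture solution 1.0 mg/mL, mutant or wild-type endoglucanase 0.1 mg/mL, β-glucosidase 0.01 mg/mL. Glucose released was measured.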

[2] = Saccharification of lignocellulose 2 with Trichoderma reesei culture solution and endoglucanase; format: biochemical, Rice straw; details: Lignocellulose 2, 24 hours; cellulase 1.0 mg/mL + endoglucanase 0.1 mg/mL + β-glucosidase (Novozyme 188) 0.01 mg/mL
How it was run: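 Dilute-sulfuric-acid-autoclaved rice straw (pH ~5) suspended at 5 wt % in 50 mM acetate pH 5.2, hydrolysed 24 h at 50 °C. Enzymes: T. reesei culture solution 1.0 mg/mL, mutant or wild-type endoglucanase 0.1 mg/mL, β-glucosidase 0.01 mg/mL. Glucose released was measured.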

[3] = Saccharification of lignocellulose 2 with Celluclast and endoglucanase; format: biochemical, Rice straw; details: 5 wt % Lignocellulose 2, pH 5.2, 50° C., 24 hours; 1.0 mg/mL cellulase + 0.1 mg/mL endoglucanase
How it was run: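 Dilute-sulfuric-acid-pretreated rice straw (10 wt% solids, pH ~5) suspended at 5 wt% in 50 mM acetate buffer pH 5.2 was digested 24 h at 50 °C with 1.0 mg/mL Trichoderma reesei Celluclast plus 0.1 mg/mL mutant or wild-type endoglucanase; glucose released was measured.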

[4] = Saccharification of lignocellulose 3 with Celluclast and endoglucanase; format: biochemical, Rice straw; details: 5 wt % Lignocellulose 3, pH 5.2, 50° C., 24 hours; 1.0 mg/mL cellulase + 0.1 mg/mL endoglucanase
How it was run: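 Hydrothermally pretreated rice straw (180° C., 20 min) at 5 wt % in 50 mM acetate buffer pH 5.2 digested at 50° C. for 24 h with Celluclast 1.0 mg/mL plus mutant or wild-type endoglucanase 0.1 mg/mL. Released glucose measured over time.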

[5] = Inhibition experiment with ferulic acid: degradation of phosphoric acid swollen cellulose; format: biochemical; details: enzyme 0.5 μM, 1 hour, 50° C., parent at 0 mM = 100%
Protocol: This substance was diluted using buffer and water to obtain a 2 wt % mixture so that the final concentration of sodium acetate was 50 mM (pH 5.2). This was designated as phosphoric acid swollen cellulose and used for the following examples.
The activity of the wild-type and the mutant endoglucanases to degrade phosphoric acid swollen cellulose was measured in the presence of ferulic acid. 1% phosphoric acid swollen cellulose/50 mM acetate buffer (pH 5.2) was used as a substrate. Ferulic acid (Sigma Aldrich) was added at final concentrations of 0, 5, 10, and 15 mM. The enzymes prepared in Reference Example 1 and Example 2 were each added at a final concentration of 0.5 μM, followed by 1 hour of enzymatic reaction at 50° C.

[6] = Saccharification of lignocellulose 3 with Trichoderma reesei culture solution and endoglucanase; format: biochemical, Rice straw; details: Lignocellulose 3, 24 hours; cellulase 1.0 mg/mL + endoglucanase 0.1 mg/mL + β-glucosidase (Novozyme 188) 0.01 mg/mL
How it was run: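 Hydrothermally treated rice straw (180 °C, 20 min, 10 MPa; solid fraction) suspended at 5 wt % in 50 mM acetate buffer pH 5.2, hydrolysed 24 h at 50 °C. Enzymes: T. reesei culture-solution cellulase 1.0 mg/mL, mutant or wild-type endoglucanase 0.1 mg/mL, β-glucosidase 0.01 mg/mL; glucose generated measured.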

[7] = Activity to degrade phosphoric acid swollen cellulose; format: biochemical; details: 1% phosphoric acid swollen cellulose, pH 5.2, enzyme 0.5 μM, 1 hour, 50° C.; glucose generated by each parent endoglucanase = 100%
How it was run: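 Enzyme added to phosphoric acid swollen cellulose in 50 mM acetate buffer, pH 5.2; 1 h reaction at 30–85 °C, stopped by pH change if needed. Glucose released measured by glucose kit; activity expressed relative to parent endoglucanase set at 100%.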

[8] = Saccharification of lignocellulose 1 with Celluclast and endoglucanase; format: biochemical, Rice straw; details: 5 wt % Lignocellulose 1, pH 5.2, 50° C., 24 hours; 1.0 mg/mL cellulase + 0.1 mg/mL endoglucanase
How it was run: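 Rice straw pretreated with liquid ammonia (15 min room temperature, then 1 h at 150° C), suspended at 5 wt % in 50 mM acetate pH5.2. Hydrolysed at 50° C for 24 h with 1.0 mg/mL Trichoderma reesei cellulase plus 0.1 mg/mL mutant or wild-type endoglucanase; glucose measured.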

[9] = Inhibition experiment with vanillin: degradation of phosphoric acid swollen cellulose; format: biochemical; details: enzyme 0.5 μM, 1 hour, 50° C., parent at 0 mM = 100%

B1: EGIa2 Wild-type: Ignisphaera aggregans-derived endoglucanase 2, SEQ ID NO: 13, parent endoglucanase (protein)
chain: MYREKSCGSTIMDVYYRARGTEIYIERKGVEKPLYIFGINWAGFEWRGRVVGGLHVRNWVEILQQIKSLGFNAIRIPFCAESVKPGVFPAPRTINYALNRDLIGLDSISIMEKIIAKAAELELYILLCFHNISCLIMEPLWYTPLFSEQQFIDTWIRVAKRFSRYWNVIGAELYNNPHGRLPPSYYYESGECATWGMGNPKTDWNLAAERIGRAVLEVAPHWLIIVKGTQLTNPRSDNVPLYPEATYWGENLRAVRDYPVNLPRDKLVYGVDIYGPDVYYMPYFNDPNIFPDKLYLIWDQNWGYVKKELGYPLIIAEFGGLYGRGDPRDVIWHQKLVEYMISNNICHWFYNALNPDNPSTAGLLENDWRTVREDKMALLRRAMDYCRERYGNI
modifications: Ignisphaera aggregans EGIa2
[1]
  Concentration of glucose generated, Culture solution + Wild-type: 8 g/L
[2]
  Concentration of glucose generated, Culture solution + Wild-type: 8 g/L
[3]
  Concentration of glucose generated, Celluclast + Wild-type: 11 g/L
[4]
  Concentration of glucose generated, Celluclast + Wild-type: 11 g/L
[5]; ferulic acid 0 mM
  Relative activity to degrade phosphoric acid swollen cellulose: 100%
[5]; ferulic acid 5 mM
  Relative activity to degrade phosphoric acid swollen cellulose: 60%
[5]; ferulic acid 10 mM
  Relative activity to degrade phosphoric acid swollen cellulose: 60%
[5]; ferulic acid 15 mM
  Relative activity to degrade phosphoric acid swollen cellulose: 55%
[6]
  Concentration of glucose generated, Culture solution + Wild-type: 8 g/L
[7]
  Relative activity: 100%
[8]
  Concentration of glucose generated, Celluclast + Wild-type: 11 g/L
[9]; vanillin 0 mM
  Relative activity to degrade phosphoric acid swollen cellulose: 100%
[9]; vanillin 5 mM
  Relative activity to degrade phosphoric acid swollen cellulose: 50%
[9]; vanillin 10 mM
  Relative activity to degrade phosphoric acid swollen cellulose: 45%
[9]; vanillin 15 mM
  Relative activity to degrade phosphoric acid swollen cellulose: 40%

B2: EGIa2 Mutant: mutant EgIa2, SEQ ID NO: 14; residue corresponding to 273rd tryptophan substituted with alanine (protein)
chain: MYREKSCGSTIMDVYYRARGTEIYIERKGVEKPLYIFGINWAGFEWRGRVVGGLHVRNWVEILQQIKSLGFNAIRIPFCAESVKPGVFPAPRTINYALNRDLIGLDSISIMEKIIAKAAELELYILLCFHNISCLIMEPLWYTPLFSEQQFIDTWIRVAKRFSRYWNVIGAELYNNPHGRLPPSYYYESGECATWGMGNPKTDWNLAAERIGRAVLEVAPHWLIIVKGTQLTNPRSDNVPLYPEATYAGENLRAVRDYPVNLPRDKLVYGVDIYGPDVYYMPYFNDPNIFPDKLYLIWDQNWGYVKKELGYPLIIAEFGGLYGRGDPRDVIWHQKLVEYMISNNICHWFYNALNPDNPSTAGLLENDWRTVREDKMALLRRAMDYCRERYGNI
modifications: Ignisphaera aggregans EGla2 W248A
notes: residue corresponding to 273rd tryptophan substituted with alanine
[1]
  Concentration of glucose generated, Culture solution + Mutant: 13 g/L
[2]
  Concentration of glucose generated, Culture solution + Mutant: 13 g/L
[3]
  Concentration of glucose generated, Celluclast + Mutant: 16 g/L
[4]
  Concentration of glucose generated, Celluclast + Mutant: 14 g/L
[5]; ferulic acid 0 mM
  Relative activity to degrade phosphoric acid swollen cellulose: 100%
[5]; ferulic acid 5 mM
  Relative activity to degrade phosphoric acid swollen cellulose: 95%
[5]; ferulic acid 10 mM
  Relative activity to degrade phosphoric acid swollen cellulose: 90%
[5]; ferulic acid 15 mM
  Relative activity to degrade phosphoric acid swollen cellulose: 90%
[6]
  Concentration of glucose generated, Culture solution + Mutant: 11 g/L
[7]
  Relative activity: 100%
[8]
  Concentration of glucose generated, Celluclast + Mutant: 16 g/L
[9]; vanillin 0 mM
  Relative activity to degrade phosphoric acid swollen cellulose: 100%
[9]; vanillin 5 mM
  Relative activity to degrade phosphoric acid swollen cellulose: 95%
[9]; vanillin 10 mM
  Relative activity to degrade phosphoric acid swollen cellulose: 90%
[9]; vanillin 15 mM
  Relative activity to degrade phosphoric acid swollen cellulose: 90%

Source: patent US9193963B2, “Mutant endoglucanase” (Toray Industries, Inc., priority 2011, dated 2015)
